Results as given in patent publication US9157064B2, “Methods for generating inner ear cells in vitro” (The Board of Trustees of the Leland Stanford Junior …, priority 2011, dated 2015).
Entries after “also recorded” stand apart in the source; their conditions may differ.

Key:
[1] = test system: ESC- and iPSC-derived cells; assay: Differentiation cultures of D/S/I and bFGF-treated ESC- and iPSC-derived cells with added supplements; assay type: cell-based, mouse; details: differentiation cultures supplemented, data not shown
From the text: Future identification of these signals could provide important clues about the mechanisms controlling the initiation of hair bundle growth during embryonic development.
Beside FGF signaling, activation of the canonical Wnt pathway has been proposed to further promote otic commitment of Pax2-expressing cells of the FGF-dependent pre-otic field of the chicken embryo (Ohyama et al., 2006).

[2] = test system: ESC-derived embryoid bodies; assay: Suppression of meso- and endodermal differentiation in ESC-derived embryoid bodies (Brachyury/GATA6 immunostaining); assay type: cell-based, mouse; details: single factor
Experimental: (§1) ES cell line C9 and iPS cell line #25-5 were used for all guidance experiments. MEF feeder cells were removed either by weaning the cells off for several passages or by pre-culturing the cells for 40 min allowing MEFs to attach. For embryoid body formation, the cells were dissociated with 0.25% trypsin-EDTA (Invitrogen) and cultured in poly(2-hydroxyethyl methacrylate)-coated 6-well cell suspension plates (Greiner). Coating was done by covering the plates with 1 ml of 2% poly(2 hydroxyethyl methacrylate) (Sigma) solution in 1:1 ethanol/acetone. After 2 min, the solution was completely aspirated and the plates were dried with open lid for 20 min in a cell culture cabinet. After three washes with PBS, the ES and iPS cells were added at a density of 50 cells/ml and cultured for 5 days in DMEM (Invitrogen) with 15% FBS, 0.1 mM MEM non-essential amino acids, […] 2-mercaptoethanol, 2 mM L-glutamine and […] ampicillin. For otic induction experiments, the following growth factors or reagents were added to the medium: recombinant mouse Dickkopf related protein 1 (Dkk-1) at 100 ng/ml (R&D Systems), SIS3 at […] (Sigma), and IGF1 at 10 ng/ml (Sigma). […]
(§2) For immunocytochemistry, the cells were fixed with 4% paraformaldehyde in PBS for 15 min at room temperature. […] Images were acquired with a Zeiss Axioimager/LSM 5 Exciter fluorescence and confocal microscope. […]

ESC-derived cultures = assay: Otic induction of ESC-derived embryoid body cultures (Pax2 immunostaining); assay type: cell-based, mouse; details: D/S/I-treated ESC-derived embryoid body cells; SU5402 treatment between d5 and d8
Experimental: Embryoid bodies were transferred into fibronectin-coated 4-well dishes (Greiner) at 30 embryoid bodies per well and cultured for three days in DMEM/F12 (Invitrogen, mixed 1:1) supplemented with N2 and B27 (Invitrogen), bFGF (R&D Systems, 25 ng/ml), heparin sulfate (Sigma, 50 ng/ml), and ampicillin ([…]). FGF3 (recombinant human FGF-3, R&D Systems) and FGF10 (recombinant human FGF-10, R&D Systems) were used at 25 ng/ml in parallel experiments. The FGF receptor antagonist SU5402 (a gift from Pfizer R&D) was used at […]. After FGF-treatment, the cells were detached using 0.05% trypsin/EDTA (Sigma) in PBS, mildly triturated, and passed 1:10 into individual wells of 4-well dishes coated with either fibronectin, gelatin, MEFs, or mitotically inactivated embryonic (E18) chicken utricle stromal cells. Utricle stromal cells were prepared from 20 utricles whose sensory epithelia were removed after 40 min treatment with 0.5 mg/ml thermolysin (Sigma) in DMEM/F12 at 37 C. After addition of 5% serum, the sensory epithelia were removed and used in unrelated experiments. […]
as §2

hESCs = assay: Otic induction from hESCs (PAX2-expressing otic progenitor cells); assay type: cell-based, human; details: hESC-derived cultures; factor added in the induction and/or stabilization phase (FIG. 23)
Experimental: FIG. 22. Optimization of lengths of incubations with factors for culturing cell populations comprising otic progenitor cells from hESCs. (a) and (b). A culture that is enriched 8.3% for PAX2-expressing otic progenitor cells may be generated by the incubation of hESCs with DKK1/SIS3/IFG-1 for 5 days, followed by incubation of the resultant embryoid bodies comprising preplacodal ectodermal cells with bFGF for 3 days.
FIG. 23A-C. Culturing in the presence of different factors impacts the proportion of otic progenitor cells produced. (a) Culturing in the presence of BMP4 reduces the proportion of otic progenitor cells produced. (b) Culturing in the presence of Noggin during the induction phase of otic progenitor cell fate acquisition, and restricting the exposure of cells to BMP4 to the stabilization phase of otic progenitor cell fate acquisition increases the proportion of otic progenitor cells produced. (c) Culturing in the presence of R-spondin 1 during the induction phase of otic progenitor cell fate acquisition increases the proportion of otic progenitor cells produced.
FIG. 23D. Culturing in the presence of FGF19 during both the induction phase and the stabilization phase of otic progenitor cell fate acquisition increases the proportion of otic progenitor cells produced.

[3] = test system: iPSC-derived embryoid bodies; assay: Suppression of meso- and endodermal differentiation in iPSC-derived embryoid bodies (Brachyury/GATA6 immunostaining); assay type: cell-based, mouse; details: single factor
Experimental: as §1, §2

Molecule: [Cl-].[Li+] [LiCl, reference compound]
- ability or efficiency to generate hair cell-like cells [1]: did not observe an increase

Molecule: COc1cc2c(cc1OC)CN(C(=O)/C=C/c1c(-c3ccccc3)n(C)c3ncccc13)CC2 [SIS3, reference compound]
- number of Brachyury-positive cells, factor alone [2]: significantly reduced

Molecule: Cc1c[nH]c(/C=C2\C(=O)Nc3ccccc32)c1CCC(=O)O [SU5402]
- Pax2 induction / Pax2 expression (ESC-derived cultures): abolishment of Pax2 induction; also recorded: virtually diminished Pax2 expression

Molecule: FGF19: fibroblast growth factor 19, ligand for FGFR4
- proportion of otic progenitor cells produced (hESCs): increases

B1: Dkk1: recombinant mouse Dickkopf related protein 1, Wnt inhibitor (protein, UniProt O54908 32-272, looked up)
Dickkopf-related protein 1: TLNSVLINSNAIKNLPPPLGGAGGQPGSAVSVAPGVLYEGGNKYQTLDNYQPYPCAEDEECGSDEYCSSPSRGAAGVGGVQICLACRKRRKRCMRHAMCCPGNYCKNGICMPSDHSHFPRGEIEESIIENLGNDHNAAAGDGYPRRTTLTSKIYHTKGQEGSVCLRSSDCAAGLCCARHFWSKICKPVLKEGQVCTKHKRKGSHGLEIFQRCYCGEGLACRIQKDHHQASNSSRLHTCQRH
- Brachyury-expressing cell population, factor alone [3]: significantly reduce
- number of Brachyury-positive cells, factor alone [2]: significantly reduced

B2: Wnt3a: recombinant Wnt3a (protein, UniProt P56704 19-352, looked up)
Protein Wnt-3a: SYPIWWSLAVGPQYSSLGSQPILCASIPGLVPKQLRFCRNYVEIMPSVAEGIKIGIQECQHQFRGRRWNCTTVHDSLAIFGPVLDKATRESAFVHAIASAGVAFAVTRSCAEGTAAICGCSSRHQGSPGKGWKWGGCSEDIEFGGMVSREFADARENRPDARSAMNRHNNEAGRQAIASHMHLKCKCHGLSGSCEVKTCWWSQPDFRAIGDFLKDKYDSASEMVVEKHRESRGWVETLRPRYTYFKVPTERDLVYYEASPNFCEPNPETGSFGTRDRTCNVSSHGIDGCDLLCCGRGHNARAERRREKCRCVFHWCCYVSCQECTRVYDVHTCK
- ability or efficiency to generate hair cell-like cells [1]: did not observe an increase

B3: BMP4: activator of BMP signaling (protein, UniProt P12644 293-408, looked up)
Bone morphogenetic protein 4: SPKHHSQRARKKNKNCRRHSLYVDFSDVGWNDWIVAPPGYQAFYCHGDCPFPLADHLNSTNHAIVQTLVNSVNSSIPKACCVPTELSAISMLYLDEYDKVVLKNYQEMVVEGCGCR
- proportion of otic progenitor cells produced (hESCs): reduces

B4: Noggin: naturally occurring inhibitor of BMP signaling (protein, UniProt Q13253 28-232, looked up)
Noggin: QHYLHIRPAPSDNLPLVDLIEHPDPIFDPKEKDLNETLLRSLLGGHYDPGFMATSPPEDRPGGGGGAAGGAEDLAELDQLLRQRPSGAMPSEIKGLEFSEGLAQGKKQRLSKKLRRKLQMWLWSQTFCPVLYAWNDLGSRFWPRYVKVGSCFSKRSCSVPEGMVCKPSKSVHLTVLRWRCQRRGGQRCGWIPIQYPIISECKCSC
- proportion of otic progenitor cells produced (hESCs): increases

B5: R-spondin 1: Roof plate-specific Spondin 1, natural enhancer of the canonical Wnt pathway (protein, UniProt Q2MKA7 21-263, looked up)
R-spondin-1: SRGIKGKRQRRISAEGSQACAKGCELCSEVNGCLKCSPKLFILLERNDIRQVGVCLPSCPPGYFDARNPDMNKCIKCKIEHCEACFSHNFCTKCKEGLYLHKGRCYPACPEGSSAANGTMECSSPAQCEMSEWSPWGPCSKKQQLCGFRRGSEERTRRVLHAPVGDHAACSDTKETRRCTVRRVPCPEGQKRRKGGQGRRENANRNLARKESKEAGAGSRRRKGQQQQQQQGTVGPLTSAGPA
- proportion of otic progenitor cells produced (hESCs): increases
